The target of this assay is RSV F A strain Viral Protein (Respiratory Syncytial Virus A strain). Briefly: SPR. (In general: In SPR one partner is held on a chip, and binding of the other changes the refractive index at the surface.)

In the case of Palivizumab, the Kd (as a rule, a measure of binding affinity in units of concentration) stood at 0.26 nM.

The values above are taken from US20220387579A1.
